Reference: patent US7507788B2, “Peptides and methods for cell death regulation” (Rappaport Family Institute for Research in the Medical …, priority 2002, dated 2009)

T1: DIAP1 (Drosophila melanogaster, UniProt Q24306)
T1 construct: The full length ORF of diap1 was subcloned into the BamH1 site of pET14b (Novagen); His (N); host or cells: cell-free in vitro transcription-translation (reticulocyte lysate); the partner His-UBCD1 was made in E. coli BL21 (pLysS)
T1 sequence (Q24306 1-438): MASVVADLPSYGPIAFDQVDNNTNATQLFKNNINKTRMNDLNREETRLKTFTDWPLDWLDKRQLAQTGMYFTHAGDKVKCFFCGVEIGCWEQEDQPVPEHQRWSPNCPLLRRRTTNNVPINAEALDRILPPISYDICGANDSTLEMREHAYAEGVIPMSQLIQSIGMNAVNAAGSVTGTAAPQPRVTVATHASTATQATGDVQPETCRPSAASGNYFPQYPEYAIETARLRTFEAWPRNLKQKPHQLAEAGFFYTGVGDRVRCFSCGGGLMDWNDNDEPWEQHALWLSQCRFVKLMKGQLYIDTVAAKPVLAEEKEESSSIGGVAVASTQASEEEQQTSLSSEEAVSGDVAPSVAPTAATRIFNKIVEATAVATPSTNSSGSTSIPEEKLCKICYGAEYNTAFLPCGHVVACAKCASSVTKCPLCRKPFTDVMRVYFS


Assays:
[1] = molecular target: T2, human XIAP (Homo sapiens, UniProt P98170); test: In vitro ubiquitination / self-conjugation reaction with 35S-labeled XIAP; assay type: biochemical; conditions: 35S-XIAP; FIG. 8, 15B, 16, 17
T2 construct: host or cells: cell-free in vitro transcription-translation; the partner His-UBCH5C was made in E. coli BL21 (pLysS)
Description: ^35S-methionine labeled mutant and wild type DIAP1, or wild type XIAP were generated in an in vitro transcription-translation system (Promega) from diap1-pET14b, diap1^21-4S pET14b and xiap pcDNA3.1 plasmids. For purification of His-UBCD1 and His-UBCH5C, ubcD1-pET14b and ubcH5C-pT7-7 were expressed in BL21 (pLysS) and purified on a Ni-column according to the manufacturer's protocol (Novagen). In vitro ubiquitination assays were carried out in a total volume of 12.5 μl and contained: ^35S-methionine labeled wild type or mutant DIAP1 or Wild type XIAP (approximately 10,000 cpm), and 250ng E1 (made in baculovirus; vector is the kind gift of Dr. Kazuhiro Iwai, University of Osaka, Osaka, Japan). Unless otherwise stated, 1.2 μg His-UBCD1 or His-UBCH5C was used in each reaction. Reaction mixture contained also 40 mM Tris-HCl, pH 7.6, 5 mM MgCl2, 1 mM DTT, 5 μg ubiquitin, 100 ng Ubiquitin-aldehyde, 2 mM ATPγS [Adenosine 5′-O-(3-thiotriphosphate)]. Reactions were incubated for 50 min at 37° C., and resolved, following addition of a sample buffer on SDS-PAGE (10%). Gels were dried and proteins visualized via Phosphorimaging (Fuji, Japan).

[2] = molecular target: T1, DIAP1; test: In vitro ubiquitination / self-conjugation reaction with 35S-labeled DIAP1; assay type: biochemical; conditions: 35S-DIAP1 with E1, UBCD1 and ubiquitin; SDS-PAGE; FIG. 13-15A
Description: ^35S-methionine labeled mutant and wild type DIAP1, or wild type XIAP were generated in an in vitro transcription-translation system (Promega) from diap1-pET14b, diap1^21-4S pET14b and xiap pcDNA3.1 plasmids. For purification of His-UBCD1 and His-UBCH5C, ubcD1-pET14b and ubcH5C-pT7-7 were expressed in BL21 (pLysS) and purified on a Ni-column according to the manufacturer's protocol (Novagen). In vitro ubiquitination assays were carried out in a total volume of 12.5 μl and contained: ^35S-methionine labeled wild type or mutant DIAP1 or Wild type XIAP (approximately 10,000 cpm), and 250ng E1 (made in baculovirus; vector is the kind gift of Dr. Kazuhiro Iwai, University of Osaka, Osaka, Japan). […]
In order to determine whether both amino acid consensus sequences described above are essential for IAP degradation, peptides were generated, with amino acid sequences as described in Tables 1, 3 and 5 above, containing one of each amino acid consensus sequence, or both, and their ability to stimulate in vitro IAP ubiquitination was assessed (FIG. 13). ^35S-methionine labeled wild type DIAP1 was incubated with 250 ng E1 and ubiquitin, with or without the addition of the RPR wild type protein, or peptides containing the RHG amino acid consensus sequence of the RPR HID or GRIM proteins, and the reaction products were resolved by SDS-PAGE.

T2 sequence (P98170 whole entry): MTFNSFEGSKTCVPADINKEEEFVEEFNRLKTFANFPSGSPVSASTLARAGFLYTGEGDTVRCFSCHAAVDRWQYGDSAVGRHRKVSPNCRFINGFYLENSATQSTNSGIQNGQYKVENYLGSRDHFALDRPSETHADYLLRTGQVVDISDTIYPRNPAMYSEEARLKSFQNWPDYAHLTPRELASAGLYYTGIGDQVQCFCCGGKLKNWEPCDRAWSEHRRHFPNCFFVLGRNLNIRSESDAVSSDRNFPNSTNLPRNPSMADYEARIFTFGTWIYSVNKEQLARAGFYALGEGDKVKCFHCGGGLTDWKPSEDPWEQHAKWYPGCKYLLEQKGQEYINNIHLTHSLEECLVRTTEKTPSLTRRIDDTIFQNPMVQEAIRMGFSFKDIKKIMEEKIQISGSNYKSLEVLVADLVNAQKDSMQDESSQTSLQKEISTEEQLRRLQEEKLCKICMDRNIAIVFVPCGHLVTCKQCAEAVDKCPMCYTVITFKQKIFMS

Molecule | stimulation of XIAP auto-ubiquitination / self-conjugation in vitro [1] | stimulation of IAP (DIAP1) self-conjugation / auto-ubiquitination in vitro [2]
AVPFYLPE QWRFLATVVL (AVPFYLPEQWRFLATVVL; Drosophila melanogaster) [Peptide H9-W, Hid RHG plus Reaper Trp-box peptide] | greatest effect | –
AVAFYIPDQATLLR QWRFLATVVL (AVAFYIPDQATLLRQWRFLATVVL; Drosophila melanogaster) [Peptide R15W, Reaper RHG plus Trp-box peptide] | greatest effect | –
Reaper: wild type Drosophila IAP inhibitor (IAPi) protein REAPER (RPR) (protein) MAVAFYIPDQATLLREAEQKEQQILRLRESQWRFLATVVLETLRQYTSCHPKTGRKSGKYRKPSQ | strongly stimulated | resulted in auto-ubiquitination
